Source: US20240294626A1 (Novartis, published 2024)

T1: Recombinant marmoset IL-18 (marmoset, UniProt U3CWC9 37-190)
T1 sequence: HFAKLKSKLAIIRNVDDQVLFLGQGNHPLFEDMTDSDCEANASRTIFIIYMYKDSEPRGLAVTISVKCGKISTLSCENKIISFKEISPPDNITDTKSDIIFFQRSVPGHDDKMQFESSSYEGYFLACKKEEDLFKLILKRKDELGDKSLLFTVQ


How the values were obtained:
[1] = biological target: T2, Recombinant marmoset IL-1β (marmoset, UniProt U3E018 117-268); assay: SET, simultaneous target binding Assay B (both targets in serial dilutions in one mix)
T2 construct: also called marIL-1β; marIL-13
Procedure: (§1) Assay B: The equilibration process (antibody/antigen mix) was performed with both targets in serial dilutions in one mix simultaneously (constant concentration of antibody 10 pM, highest antigen conc. see above). The same mix was then analyzed for its free antibody concentration on IL18 and IL-1β coated plates as described above.

Recombinant human IL-1β [2] = biological target: T3, Recombinant human IL-1β (human, UniProt P01584 117-269); assay: as above
T3 construct: also called huIL-1β; IL-1b
Procedure: as §1

[3] = biological target: T1, Recombinant marmoset IL-18; assay: cell-based or functional assay
Recombinant human IL-18 [4] = biological target: T4, Recombinant human IL-18 (human, UniProt Q14116 37-193); assay: cell-based or functional assay
Recombinant human IL-18 [5] = biological target: T4, Recombinant human IL-18; assay: SET, simultaneous target binding Assay B (both targets in serial dilutions in one mix)
Procedure: as §1

[6] = biological target: T2, Recombinant marmoset IL-1β; assay: cell-based or functional assay
Recombinant human IL-1β [7] = biological target: T3, Recombinant human IL-1β; assay: cell-based or functional assay

| Binder | binding result [1] | binding result (Recombinant human IL-1β [2]) | IC50, inhibition of IFNγ production in human PBMC stimulated with recombinant marmoset IL-18 (1 nM) and human IL-12 (10 ng/ml) [3] [nM] | IC50, inhibition of IFNγ production in marmoset whole blood stimulated with recombinant marmoset IL-18 (0.3 nM) and human IL-12 (10 ng/ml) [3] [nM] | IC50, inhibition of IFNγ production in marmoset whole blood stimulated with recombinant marmoset IL-18 (3 nM) and human IL-12 (10 ng/ml) [3] [nM] | IC50, inhibition of IFNγ production in KG-1 cells stimulated with recombinant human IL-18 (3 nM) and human IL-12 (1 ng/ml) (Recombinant human IL-18 [4]) [nM] | IC50, inhibition of IFNγ production in human PBMC stimulated with recombinant human IL-18 (3 nM) and human IL-12 (1 ng/ml) (Recombinant human IL-18 [4]) [nM] | binding result (Recombinant human IL-18 [5]) | IC50, inhibition of IL-6 production in human dermal fibroblasts stimulated with recombinant marmoset IL-1β (18 pM), Exp. C [6] [nM] | IC50, inhibition of IL-6 production in marmoset dermal fibroblasts stimulated with recombinant marmoset IL-1β (18 pM), Exp. A [6] [pM] | IC50, inhibition of IL-6 production in marmoset dermal fibroblasts stimulated with recombinant marmoset IL-1β (18 pM), Exp. B [6] [nM] | IC50, inhibition of IL-6 production in human PBMC stimulated with recombinant human IL-1β (60 pM) (Recombinant human IL-1β [7]) [nM] | IC50, inhibition of IL-6 production in human dermal fibroblasts stimulated with recombinant human IL-1β (6 pM) (Recombinant human IL-1β [7]) [pM] |
| --- | --- | --- | --- | --- | --- | --- | --- | --- | --- | --- | --- | --- | --- |
| mAb1 (antibody, human IgG1, lambda, L234A L235A, V domains shown, Human anti-IL-18 monoclonal antibody, lambda light chain; also called IL-18 antibody) VH: EVQLVQSGAEVKKPGSSVKVSCKASGGTFKSYAISWVRQAPGQGLEWMGNIIPMTGQTYYAQKFQGRVTITADESTSTAYMELSSLRSEDTAVYYCARAAYHPLVFDNWGQGTLVTVSS VL: DIVLTQPPSVSGAPGQRVTISCSGSSSNIGNHYVNWYQQLPGTAPKLLIYRNNHRPSGVPDRFSGSKSGTSASLAITGLQSEDEADYYCQSWDYSGFSTVFGGGTKLTVLG | no binding (tested: highest antigen conc. 0.5 nM) | no binding (tested: highest antigen conc. 0.5 nM) | 6.6 | 4.7 | 181 | 0.035 | 0.78 | – | – | – | – | – | – |
| mAb2 (antibody, human IgG1, kappa, V domains shown, Human anti-IL-1β monoclonal antibody, kappa light chain; also called IL-1β antibody) VH: QVQLVESGGGVVQPGRSLRLSCAASGFTFSVYGMNWVRQAPGKGLEWVAIIWYDGDNQYYADSVKGRFTISRDNSKNTLYLQMNGLRAEDTAVYYCARDLRTGPFDYWGQGTLVTVSS VL: EIVLTQSPDFQSVTPKEKVTITCRASQSIGSSLHWYQQKPDQSPKLLIKYASQSFSGVPSRFSGSGSGTDFTLTINSLEAEDAAAYYCHQSSSLPFTFGPGTKVDIKR | – | – | – | – | – | – | – | no binding (tested: highest antigen conc. 5 nM) | 0.114 | 95 | 0.138 | 0.29 | 31 |
